The results in this text go back to the DeepSol protein solubility set.

The data set can be described thus: soluble on expression in E. coli; label from the status in PepcDB or PDB records.
Regarding “MTLMKKFYVTTPIYYVNDVPHLGHAYTTIAADTIARYYRLRDYDVFFLTGTDEHGLKIQKKAEELGISPKELVDRNAERFKKLWEFLKIEYTKFIRTTDPYHVKFVQKVFEECYKRGDIYLGEYEGWYCVGCEEFKSEAELAEDHTCPIHQKKCEYIKEPSYFFRLSKYQDKLLELYEKNPEFIQPDYRRNEIISFVKQGLKDLSVTRPRSRVKWGIPVPFDPEHTIYVWFDALFNYISALEDKVEIYWPADLHLVGKDILRFHTVYWPAFLMSLGYELPKKVFAHGWWTVEGKKMSKTLGNVVDPYEVVQEYGLDEVRYFLLREVPFGQDGDFSKKAILNRINGELANEIGNLYSRVVNMAHKFLGGEVSGARDEEYAKIAQESIKNYENYMEKVNFYKAIEEILKFTSYLNKYVDEKQPWALNKERKKEELQKVLYALVDGLFVLTHLLYPITPNKMKEALQMLGEKEFLKELKPYSKNTYKLGERKILFPKREG”, the “soluble on expression in E. coli” value is given as “soluble”.
In the case of “MTLPRLILPLLIAAACALGGCAYNPDLGRDQLLIVNDNNLARDGEKAWADALRTSHVSKEPRKNARVQAVGQRVIVAAGLAGRPWEYAVFLEEAPNAFVLPGGYVGVTVGLLSLVENDDQLAAVIGHEAGHVVARHAAERVSQETTSKVLLGIAKAAAGGTEFGKLLKDHGEDATRYGLLLPFSRKQELEADKLGVDFMQRAGYRPREAVKLWRNMQALDGGKSGGDLGSTHPSDAVRIQELERYLASKGWLEHHHHHH”, the “soluble on expression in E. coli” value was “not soluble”.
The result for “MTLTPEASKSVAQPPTQAPLTQEEAIASLGRYGYGWADSDVAGANAQRGLSEAVVRDISAKKNEPDWMLQSRLKALRIFDRKPIPKWGSNLDGIDFDNIKYFVRSTEKQAASWDDLPEDIRNTYDRLGIPEAEKQRLVAGVAAQYESEVVYHQIREDLEAQGVIFLDTDTGLREHPDIFKEYFGTVIPAGDNKFSALNTAVWSGGSFIYVPPGVHVDIPLQAYFRINTENMGQFERTLIIADEGSYVHYVEGCLPAGELITTADGDLRPIESIRVGDFVTGHDGRPHRVTAVQVRDLDGELFTFTPMSPANAFSVTAEHPLLAIPRDEVRVMRKERNGWKAEVNSTKLRSAEPRWIAAKDVAEGDFLIYPKPKPIPHRTVLPLEFARLAGYYLAEGHACLTNGCESLIFSFHSDEFEYVEDVRQACKSLYEKSGSVLIEEHKHSARVTVYTKAGYAAMRDNVGIGSSNKKLSDLLMRQDETFLRELVDAYVNGDGNVTRRNGAVWKRVHTTSRLWAFQLQSILARLGHYATVELRRPGGPGVIMGRNVVRKDIYQVQWTEGGRGPKQARDCGDYFAVPIKKRAVREAHEPVYNLDVENPDSYLAYGFAVHNCTAPIYKSDSLHSAVVEIIVKPHARVRYTTIQNWSNNVYNLVTKRARAEAGATMEWIDGNIGSKVTMKYPAVWMTGEHAKGEVLSVAFAGEDQHQDTGAKMLHLAPNTSSNIVSKSVARGGGRTSYRGLVQVNKGAHGSRSSVKCDALLVDTVSRSDTYPYVDIREDDVTMGHEATVSKVSENQLFYLMSRGLTEDEAMAMVVRGFVEPIAKELPMEYALELNRLIELQMEGAVG” reads “not soluble”.
“MTNDLADIKLYDQNPDEAAIERLHHRLALVMKNQDASLVATSDPKELERVEKWVQDVLGADEQSAKRGVSKVADMMSGDRRKSRMTFYYLVAKQLNALHKI”: the “soluble on expression in E. coli” value was “not soluble”.
The result for “MTNIEERINQIIQVLREQVVQDTAVPRNIRRAAEQAIEALQNKEKEPAVRAADAIAILEEISEDPNMPLHTRTIIWEVLGALEQIK” reads “not soluble”; that for “MTNKDIYKNNPLHGTSLETVLTTLVDHYGFEILAAYMNLNCFKQNASIESSLKFLKKTQWAQEKVEAFYMYQYNSLPKADDANFELPPRDRIVPSGLEQRPPKELSLDDAEELRIKQAKKTRERAAAATSANPWGSRLEHHHHHH”, “not soluble”.
Next, “MTPAIDAHVRLDTHPTHPSAVQAHLTGTQARVASMALEAAGWSAAATGVLVLARIDHEEPYWAADAAQHLTAAGITVEITPRLQEAIDEEWTWPNYPMTWCTRSEIREVSNQAQKIHDDIRNGHLLIHAHAHDGHTTVAVGTYLHPGGKSVYLHGEDHLRQVADTFDSPAEALVAFEKVHAAEMRPGPAPLTDTERAAIAARSVFDATTAKPEPPRREPEAVPVYLADAGDHDALLDSFLDTHGEFEKWRTWSDETTHAIHESQTLRIERVHETQARETAWTVAAYETPVSDRMWHLTATDATPAPVLLNLLNHLADGDGWDTVIGVPVGEKTVTTATQPLTEAGWKHTLTGHGIRWTSPDGQASVRFDPLTAQAPQNPATWTIWAGPGPDRPTWAITASSHTPSSLLADLSESLAHETGTRQPRPGREHRTRLAASAPAIPAVTSDRPASRSRLEHHHHHH”: “soluble”.
For “MTPDPLAPLDLAFWNIESAEHPMHLGALGVFEADSPTAGALAADLLAARAPAVPGLRMRIRDTWQPPMALRRPFAFGGATREPDPRFDPLDHVRLHAPATDFHARAGRLMERPLERGRPPWEAHVLPGADGGSFAVLFKFHHALADGLRALTLAAGVLDPMDLPAPRPRPEQPPRGLLPDVRALPDRLRGALSDAGRALDIGAAAALSTLDVRSSPALTAASSGTRRTAGVSVDLDDVHHVRKTTGGTVNDVLIAVVAGALRRWLDERGDGSEGVAPRALIPVSRRRPRSAHPQGNRLSGYLMRLPVGDPDPLARLGTVRAAMDRNKDAGPGRGAGAVALLADHVPALGHRLGGPLVSGAARLWFDLLVTSVPLPSLGLRLGGHPLTEVYPLAPLARGHSLAVAVSTYRGRVHYGLLADAKAVPDLDRLAVAVAEEVETLLTACRPLEHHHHHH”, the “soluble on expression in E. coli” value is reported as “soluble”.
Next, “MTPPADETRLFECVTCGGVGIGDNRPTCCGEPMAATETGDTAVSEPSLETLLKTVFDMSGTELDICLCVMEGGELTVAALAEQIGYDRSVVARHLNHLAAFGVVEKRRRIRPEGGHVYVYTPQPPEVVRERLREEFLSWVRLATAQLDDLQREKVEAIADAKTDERQWTVFQEQ”: “not soluble”; “MTPPVSAFKKTPKKEEHPLVAIVILDAFDQRFAPTHESYPCFGTIPICNVPAINFALSWLMRTEVKNVMLVVSGLNADHATSVQREWRLAFDEFTVVVCDGASSVGDCMREIHNRELITGDFMLISNPTAVVSSTLSAQISEFRKRRRENPDNVMTLLYSNRENPEHLVLGINSETSKLMLFPAANSLNQLKASKKDFYDEVDIRRDLTPTGIAFCSRLIATQFSDNFDFVGIDDVVREILSKDDILGMSVHVEVLSPKERAFCAYDYESLILLNILMLERWFYPLVPENSDPSRYFSANPRNLYLEENGDEISIKANTWILNNNCSTVCLGVKTDIAYDAFIRNSCIGAHTEISSKTRITSSMIGKNCKIGENCVIEYAFIGDDVVIPNGAHIPKESIIGNGVMYPKELPNIQNTAIFKNAINEETFEKLSSQPIGNVHVSKFRNGGPFWRRSVNGKTNFALEEDDSESEYSESEEEDDGVGNSTKMFHDEVLESMQKILESENSLMRNLILEINSSKLACNVTMDEVARNVFAAFMKLKHNQDFNKMKELIVKWQPLFLNYYKTSAESLKVKSADQKRFELDLKRRCQIQLLLAIEDKFDRDESFGVKAQALVHYLYQEADILDEDSIIEWAGSIAEESKLKGLMKKIVDWLQEDDDEEESEDE”: “not soluble”.
